# Measured values: US20260226143A1 (OTHAIR PROTHENA, published 2026)
# Numbering of substitutions follows the chain as printed.
# B1: h2731 (antibody, human IgG1, kappa, V domains shown)
# VH: EVQLLESGGGLVQPGGSLRLSCAASGFTFSNYGMSWVRQAPGKGLEWVASIRSGSGRTYYSDNVKGRFTISRDNSKNTLYLQMNSLRAEDTAVYYCVRYDHYSGSSDYWGQGTLVTVSS
# VL: DVVMTQSPLSLPVTLGEPASISCKSSQSLLDYDGKTYLNWLLQKPGQSPQRLIYRVTNRDTGVPDRFSGSGSGTDFTLKISRVEAEDVGVYYCWQGTHFPRSFGQGTKVEIKR
# notes: Heavy chain with or without the C-terminal lysine
# B2: h2831 (antibody, V domains shown)
# VH: B1 VH with Y32F, I51V, S105T
# VL: DVVMTQSPLSLPVTLGEPASISCKSSQSLLDYDGKTYLNWLLQKPGQSPQRLIYRVTNRDTGVPDRFSGSGSGTDFTLKISRVEAEDVGVYYCWQGTHFPRSFGQGTKVEIK
# notes: Humanized IgG; only variable domains tied to the name; also called PB-0575
# B3: h2726 (antibody, V domains shown)
# VH: B1 VH
# VL: B2 VL with L15P, R55K, T57S, T61S, S102T
# notes: Humanized IgG; also called PB-0573
# B4: h2931 (antibody, V domains shown)
# VH: B1 VH with Y32F, I51V, S103T, S105T
# VL: B2 VL
# notes: Humanized IgG; only variable domains tied to the name; also called PB-0576
# Columns and labels:
# [1] = biological target: soluble Aβ oligomers (human, partly biotinylated (unlabeled, biotinylated or 9:1 unlabeled:biotinylated preparations)); test: cell-based or functional assay
# [2] = biological target: T1, recombinant Aβ1-42 fibrils (human); test: direct ELISA on plate-coated Aβ fibrils, antibody titrated
# T1 construct: Fibrils made from HFIP-treated Aβ1-42 (DMSO, 10 mM HCl, 37 C, 24 h; pellet resuspended and sonicated); also called fibril Aβ42; fibril Aβ
# Procedure: (§1) Plates were blocked 1% BSA/PBS for 1 hour. […] Plates were washed four times with TBS/Tween 20 and 100 μl of goat anti Human IgG HRP (Jackson ImmunnoResearch Laboratories, Inc, West Grove, PA or Invitrogen, Carlsbad, CA) at 1/5000 dilution was added to each well and incubated 1 hour at room temperature. Plates were wash six times in TBS/Tween 20, and Thermo Fisher o-phenylenediamine dihydrochloride (OPD) tablets and ThermoFisher substrate buffer were prepared per manufacturer's instructions. 100 μl of substrate was added and incubated 15 min. Reaction was stopped with 50 μl H₂SO₄. Plates were read at 490 nm on a molecular devices spectromax. FIG. 9A, and FIG. 21. For FIG. 21, curves and resulting EC₅₀ estimations represent nonlinear three-parameter least squares fit of the data (data shown in Table 7).
# [3] = biological target: T2, aggregated Aβ42 (heterogeneous Aβ 42 aggregate mixture) (human); test: competition ELISA, plate coated with aggregated Aβ42; competitor biotinylated hBP
# T2 construct: Aβ 42 vortexed in water and kept on a nutator for 48 h at room temperature, then coated on plates; also called Aβ aggregates; heterogeneous aggregated Aβ42 species
# Procedure: One mg of Aβ 42 was added to 1 ml of diH2O and was vigorously vortexed and placed on a nutator for 48 hours at room temperature. Plates were coated with 0.5 mg/ml of the heterogeneous Aβ 42 aggregate mixture and blocked, e.g., with 1% BSA/PBS. […] 100 ul of GE Streptavidin HRP diluted 1/10,000 was then added and incubated for 30 minutes. Plates were washed six times with TTBS. Thermo Fisher o-phenylenediamine dihydrochloride (OPD) substrate was prepared fresh per manufacturers direction, and 100 μl per well was added. The reaction was incubated for 15 minutes and the reaction stopped with 50 ul 2N H₂SO₄. […] For FIG. 20A and FIG. 20B, curves and resulting IC₅₀ estimations represent nonlinear three-parameter least squares fit of data. Individual points are the average of triplicate samples (coefficient of variation <20%).
# [4] = biological target: T1, recombinant Aβ1-42 fibrils; test: direct ELISA on plate-coated Aβ fibrils; the low end falls to h2831 by the EC50 values of Table 7
# Procedure: as §1
# [5] = biological target: T1, recombinant Aβ1-42 fibrils; test: direct ELISA, fibril Abeta plate coat titrated, antibody held constant at 2 ug/ml; unit from the axis 'log ng/ml Abeta' [right panel]
# Procedure: Plates were blocked 1% BSA/PBS 1 hour. Antibodies at 2 μg/ml in 0.1% BSA/PBS 0.1% Tween 20 were added in duplicate to the appropriate wells and incubated for 2 hrs at room temperature. Plates were washed 4× with TBS/Tween 20 and then 100 μl of Jackson Goat anti Human IgG HRP 1/5000 dilution was added to each well and incubated 1 hour at room temperature. Plates were wash six times in TBS/Tween 20, and Thermo Fisher o-phenylenediamine dihydrochloride (OPD) tablets and Thermofisher substrate buffer were prepared per manufacturer's instructions. 100 μl of substrate was and incubated 15 min. Reaction was stopped with 50 μl H₂SO₄. Plates were read at 490 nm on a molecular devices spectromax. FIG. 9B, right panel.
# [6] = biological target: T1, recombinant Aβ1-42 fibrils; test: direct ELISA on plate-coated Aβ fibrils; the high end falls to h2726 by the EC50 values of Table 7
# Procedure: as §1
# T2 sequence (peptide, as listed by the source): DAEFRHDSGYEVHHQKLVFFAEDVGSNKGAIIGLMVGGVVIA
# Chain of soluble Aβ oligomers (human, partly biotinylated (unlabeled, biotinylated or 9:1 unlabeled:biotinylated preparations)) (peptide, as listed by the source): as above
# T1 sequence (peptide, as listed by the source): as above
Binder,"IC50 of the reduction of Abeta spots per neuron (% Abeta control, normalized to untreated Abeta) [1] [µg/mL]",EC50 [2] [µg/mL],IC50 [3] [µg/mL],Total Area (area under the curve of % Abeta control against mAb concentration) [1],fold lower estimated EC50 than aducanumab [4] [fold],IC50 (as headed in the table; half-maximal concentration of the Abeta fibril coat) [5] [µg/mL],fold lower estimated EC50 than aducanumab [6] [fold]
B1,0.47,0.0367,5.02,,,,
B2,0.924,0.0489,9.91,6500,15 to 20,0.412,
B3,1.67,0.0359,9.05,9070,,0.387,15 to 20
B4,0.627,0.0449,6.9,8480,,0.335,
